In test [1] the target is Alexa Fluor 488-labeled OmpT (E. coli) (UniProt P09169). Briefly: MST.
Test [2] has as its target T1, SurA WT (E. coli, UniProt P0ABZ6 21-428).
T1 sequence (looked up): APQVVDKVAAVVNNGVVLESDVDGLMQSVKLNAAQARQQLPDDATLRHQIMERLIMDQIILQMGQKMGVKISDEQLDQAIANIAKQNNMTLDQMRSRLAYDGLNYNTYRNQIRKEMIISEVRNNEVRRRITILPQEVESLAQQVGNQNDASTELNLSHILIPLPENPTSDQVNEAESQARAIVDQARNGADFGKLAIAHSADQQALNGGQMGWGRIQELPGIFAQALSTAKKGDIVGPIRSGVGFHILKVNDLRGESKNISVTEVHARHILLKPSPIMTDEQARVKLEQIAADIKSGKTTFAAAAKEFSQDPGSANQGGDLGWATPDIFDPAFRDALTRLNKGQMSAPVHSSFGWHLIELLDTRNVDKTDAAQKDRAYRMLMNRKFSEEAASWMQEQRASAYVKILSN
The test can be described thus: MST.

For “SurA WT (from UniProt P0ABZ6 21-428) (natural protein)”, the dissociation constant Kd in test [1] came to 9.3 µM.

B1: Alexa Fluor 488-labeled tOmpA (domain or fragment)
chain: APKDNTWYTGAKLGWSQYHDTGFINNNGPTHENQLGAGAFGGYQVNPYVGFEMGYDWLGRMPYKGSVENGAYKAQGVQLTAKLGYPITDDLDIYTRLGGMVWRADTKSNVYGKNHDTGVSPVFAGGVEYAITPEIATRLEYQWTNNIGDAHTIGTRPDNGMLSLGVSYRFG
modifications: Alexa Fluor 488 C5 maleimide on the N-terminal Cys
B1 showed a Kd in test [2] of 1800 ± 100 nM.

The record behind these values is article PMC7618261 (Journal of molecular biology, 2019).
